Here are results for nine molecules from US20190375824A1 (PANASONIC INTELLECTUAL PROPERTY MANAGEMENT, published 2019).

B1: VHH antibody of SEQ ID NO: 1 (VHH)
VHH: QVQLVESGGGLVQAGDSLRLSCAASGRTFSGYAMGWFRQAPGKEREFVARINWSGTLTYYADSVKGRFTGSRDNAKNTVYLQMNSLKPEDTAVYYCAQRGDSGSNYDPSGYSYWGQGTQVTVSS
notes: Isolated from a phage library; also called WT VHH
B2: VHH antibody in which glycine in position 36 of SEQ ID NO: 1 was substituted (SEQ ID NO: 3) (VHH)
VHH: QVQLVESGGGLVQAGDSLRLSCAASGRTFSDYAMGWFRQAPGKEREFVARINWSGTLTYYADSVKGRFTGSRDNAKNTVYLQMNSLKPEDTAVYYCAQRGDSGSNYDPSGYSYWGQGTQVTVSS
notes: Text says asparagine at IMGT 36; Expressed in E. coli; also called G36D mutant
B3: VHH antibody in which glycine in position 78 of SEQ ID NO: 1 was substituted with alanine (SEQ ID NO: 5) (VHH)
VHH: QVQLVESGGGLVQAGDSLRLSCAASGRTFSGYAMGWFRQAPGKEREFVARINWSGTLTYYADSVKGRFTASRDNAKNTVYLQMNSLKPEDTAVYYCAQRGDSGSNYDPSGYSYWGQGTQVTVSS
notes: Expressed in E. coli; also called G78A mutant
B4: VHH antibody in which glycine in position 36, arginine in position 50, glycine in position 78, and serine in position 116 of SEQ ID NO: 1 were substituted (SEQ … (VHH)
VHH: QVQLVESGGGLVQAGDSLRLSCAASGRTFSDYAMGWFRQAPGKELEFVARINWSGTLTYYADSVKGRFTASRDNAKNTVYLQMNSLKPEDTAVYYCAQRGDSGSNYDPSGYRYWGQGTQVTVSS
notes: Text says asparagine at IMGT 36; also called G36D/R50L/G78A/S116R mutant
B5: VHH antibody in which glycine in position 36, arginine in position 50, and serine in position 116 of SEQ ID NO: 1 were substituted (SEQ ID NO: 9) (VHH)
VHH: QVQLVESGGGLVQAGDSLRLSCAASGRTFSDYAMGWFRQAPGKELEFVARINWSGTLTYYADSVKGRFTGSRDNAKNTVYLQMNSLKPEDTAVYYCAQRGDSGSNYDPSGYRYWGQGTQVTVSS
notes: Text says asparagine at IMGT 36; also called G36D/R50L/S116R mutant
B6: VHH antibody in which serine in position 116 of SEQ ID NO: 1 was substituted with arginine (SEQ ID NO: 6) (VHH)
VHH: QVQLVESGGGLVQAGDSLRLSCAASGRTFSGYAMGWFRQAPGKEREFVARINWSGTLTYYADSVKGRFTGSRDNAKNTVYLQMNSLKPEDTAVYYCAQRGDSGSNYDPSGYRYWGQGTQVTVSS
notes: Expressed in E. coli; also called S116R mutant
B7: VHH antibody in which arginine in position 50 of SEQ ID NO: 1 was substituted (SEQ ID NO: 4) (VHH)
VHH: QVQLVESGGGLVQAGDSLRLSCAASGRTFSGYAMGWFRQAPGKELEFVARINWSGTLTYYADSVKGRFTGSRDNAKNTVYLQMNSLKPEDTAVYYCAQRGDSGSNYDPSGYSYWGQGTQVTVSS
notes: Text says asparagine at IMGT 50; Expressed in E. coli; also called R50L mutant
B8: VHH antibody in which glycine in position 36, glycine in position 78, and serine in position 116 of SEQ ID NO: 1 were substituted (SEQ ID NO: 10) (VHH)
VHH: QVQLVESGGGLVQAGDSLRLSCAASGRTFSDYAMGWFRQAPGKEREFVARINWSGTLTYYADSVKGRFTASRDNAKNTVYLQMNSLKPEDTAVYYCAQRGDSGSNYDPSGYRYWGQGTQVTVSS
notes: Text says asparagine at IMGT 36; also called G36D/G78A/S116R mutant
B9: VHH antibody in which glycine in position 36 and serine in position 116 of SEQ ID NO: 1 were substituted (SEQ ID NO: 7) (VHH)
VHH: QVQLVESGGGLVQAGDSLRLSCAASGRTFSDYAMGWFRQAPGKEREFVARINWSGTLTYYADSVKGRFTGSRDNAKNTVYLQMNSLKPEDTAVYYCAQRGDSGSNYDPSGYRYWGQGTQVTVSS
notes: Text says asparagine at IMGT 36; also called G36D/S116R mutant

The target in this experiment is T1, human serum albumin (human, UniProt P02768 25-609).
T1 construct: Antigen in the SPR assay
Kind of experiment: SPR.
Description: The binding affinity of the provided VHH antibodies to human serum albumin was measured with surface plasmon resonance.
With B1, the Kd is 261 nM, the koff is 0.371 s⁻¹ and the kon is 1.42e+06 M⁻¹ s⁻¹.
Take B2: the Kd stood at 61.4 nM, the koff was found to be 0.125 s⁻¹ and the on-rate constant (kon) came out at 2.04e+06 M⁻¹ s⁻¹.
On to B3, for which binding was put at a Kd of 13200 nM, the koff is 0.806 s⁻¹ and the on-rate (kon) was 61200 M⁻¹ s⁻¹.
B4 returned a Kd of 380 nM, a koff of 0.355 s⁻¹ and a kon of 933000 M⁻¹ s⁻¹.
Molecule B5 returned a Kd of 77.9 nM, an off-rate (koff) of 0.0879 s⁻¹ and a kon of 1.13e+06 M⁻¹ s⁻¹.
For B6, in that order: 35.6 nM, 0.591 s⁻¹ and 1.66e+07 M⁻¹ s⁻¹.
As to B7, binding was characterised by a dissociation constant (Kd) of 157 nM, the off-rate constant (koff) amounted to 0.303 s⁻¹ and the kon came to 1.93e+06 M⁻¹ s⁻¹.
In the case of B8, binding was put at a Kd of 365 nM, the koff is 0.411 s⁻¹ and the kon was found to be 1.13e+06 M⁻¹ s⁻¹.
For B9, in that order: 44.7 nM, 0.0643 s⁻¹ and 1.44e+06 M⁻¹ s⁻¹.

Broadly, the Kd is the concentration at which binding is half-saturated. Usually koff stands for the rate constant with which the complex falls apart. Read a low koff as slow dissociation. A word on the kon: it is a measure of how fast the partners come together. Low readings indicate slower complex formation, high ones faster complex formation.
